Measurements as given in PMC3171513.

What was measured:
[1] = target: His-tagged wild-type cytochrome bc1 complex from Paracoccus denitrificans (Paracoccus denitrificans) (UniProt P05417)
[2] = target: wild-type cytochrome bc1 complex from Paracoccus denitrificans (Paracoccus denitrificans) (UniProt P05417)

“horse heart cytochrome c (from UniProt P00004 1-105) (natural protein)” gave a steady-state reduction of cytochrome c by bc1 complex with decylubiquinol, KM [1] of 3.4 µM, a steady-state reduction of cytochrome c by bc1 complex with decylubiquinol, kCAT [1] of 328 s⁻¹ and a steady-state reduction of cytochrome c by bc1 complex with decylubiquinol, KM [2] of 2.3 µM. The steady-state reduction of cytochrome c by bc1 complex with decylubiquinol, kCAT [2] was 273 s⁻¹.
